Measured values published in the nanobody polyreactivity screen of Harvey et al. (2022).

Test: yeast display, Sf9 membrane polyspecificity reagent, FACS + sequencing; frameworks hold sequencing errors
In short: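 Sorting gates, low and high (top ~1%), were placed on anti-HA fluorescence to track expression and on streptavidin fluorescence to track reagent binding. A clone's polyreactivity label is taken from the gate it came out of. The reagent was 10% biotinylated, detergent-solubilized Sf9 membrane, applied for 1 hour at 4 °C to galactose-induced yeast display cells.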

| Sequence | polyreactivity (PSR sort gate) |
| --- | --- |
| HVQLVESGGGLVQAGGSLRLSCAASGSTFSGYAMGWYRQAPGKERELVAAISSSGGSTYYADSVKGRFTISRDNAKNTVYLQMNSLKPEDTAVYYCNADEYRGTSTEFEYWGQGTQVTVSS | high polyreactivity |
| HVQLVESGGGLVQAGGSLRLSCAASGTFYKNAMGWYRQAPGKERELVAAISWRGGRTYADSVKGRFTISRDNAKNSVYLQMNSLKPEDTAVYYCNKRFYPEHYYWGQGTQVTVSS | high polyreactivity |
| HVQLVESGGGLVQAGGSLRLSCAASGYTFVPYAMGWYRQAPGKERELVAAISSSGGDTYYADSVKGRFTISRDNAKNTVYLQMNSLKPEDTAVYYCNTGVYVWQYWYYGFDYWGQGTQVTVSS | low polyreactivity |
| HVQLVESGGGLVQAGGSLRLSCAHSGIIFRTNAMGWYRQAPGKEREFVAAISAGATRKYYADSVKGRFTISRDTAKNTVYLQMNSLKPEDTAVYYCAAASGYDYWGQGTQVTVSS | high polyreactivity |
| HVQLVESGGVLVQAGGSLRLSCAATGSIFRNNAMGWYRQAPGKERDLVAAISSSGGSTFYADSVKGRFTISRDNAKNTVYLQMNSQNPEDTAVYYCAARVRSELIKRYDWGQGTQVTVSS | high polyreactivity |
| HVQLVESGRGLVEAGGSLRLSCAAYGLGCTVNAMVWYIQAPGTERELVARIVWPGITYADSVKGRFTISLDNAMNTVYLQMNSQKPEDTAVYYCAAVWLHHSYYAKYDYWGQRTQVTVSS | low polyreactivity |
| HVQLVETVGGLVQAGGSLRLSCAASGSNFDPNAMGWYRQAPVKERELVAAISWSGGSTYYADSVKGRFTISRDNAKNNVYLQMHSLKPEDTAVYYCNAQFYDSYSYTNDYWGQGTQVTVSS | low polyreactivity |
| HVQVVESGGGLVQEGGSLRLICAASGYLFAYYAMGWFRQAPGKERELVAPIRSGGSTNYADSVKGRFTISRDNAKNTVYLQMNSLKPEDTAVYYCAKGDRRWTLCRPDYDYWGQGTQVTVAS | low polyreactivity |
| IIQAGGSLRLSCAASVRTFSGYAMGWYRQAPGKERELIADITSGGSTYYADSVKGRFTISRDNAKNTVYLQMNSLKPEDTAVFYCCRDDRLAGDYWGQGTQVNVSS | low polyreactivity |
| KLQLVESGRGLVQEGGSLRLSCAASGSTFGANAMGWYRHAPGKASEFVAAISRSGVRTYYADSVKGRFTISRDNAKNTVYLQMNSQKPEDTAVYYCAAYGYWWTYTRDDYWGQGTQGTVSS | low polyreactivity |
| KVHLVESGGGLVQAGGSLRLSCPAAGFTLDQYAMGWYRQAPGKEMELVAVITSGVNTYYADSVKGRFTISRDNAKNTVYLQMNSLKPEDTAVYYCAKDVCDPFYDPFEYWGQGTQVTVSS | low polyreactivity |
| KVNIEESGGGLVQAGGSLRLSCAAYGSIFRYYAMGRYRQATGKERELVASISSSGGSTYYADSEKGRFTISRDNAKNTVYLQMNSLKPEDTAVYYCAAVRHRNYGYWGQGTQVTVSS | high polyreactivity |
| KVQIVESVGGLVQAGASLRLSCAASGSIFRYYPMGWYRQAPGKERELDAAISSSGTTYYADSVKGRFTISRDNAKNTVYLQMNRLKPEDCAVYYCAAVWTYWYYGDDYWGLGTQVTVSS | low polyreactivity |
| KVQLVESGGGLVQAGGRLRLSCAPSGSIFGTNTMGWYRQAPGTERELVAAIRLSDSSTYYADSVKGRFTISRDNAKNTVYLQMKSLKPEDTAVYDCAVDYRAYHYYRYDYWGQGTQVTVSS | low polyreactivity |
| KVQLVESGGGLVQAGGSLRISCAASGFIFVDYAMGWYRQAPGKERELVAAISSSGSTTYADSVKGRFTISRDNAKNIVYLQMNSLKPEDTAVYYCNADAEVVPGEYDYWGQGTQVTVSS | low polyreactivity |
| KVQLVESGGGLVQAGGSLRLSCAASGIIFFPYAMAWYRQAPGKERELVASINISDSSTYYADSVKGRFTISRDNAKKTVYLQMNSLKPEDTAVYYGAADNRGDSWYWDGYWGQGTQVTVSS | low polyreactivity |
| KVQLVESGGGLVQAGGSLRLSCAASGLTFSVYAMGWYRQAPGKERELVAAITNSGGSTYYADSVKGRFTISRDNAKNTVYLQMNSLIPEDTAVYYCAARYSTYYSGPPGLHLDYYYWGQGTQVTVSS | low polyreactivity |
| KVQLVESGGGLVQAGGSLRLSCAASGRIFKYYAMGWYRQAPGKEMELVARISRSSGNTYYADSVKGRFTISRDNAKKTVYLQMNSLIPEDTAVYYCATVPHYNGFNYWGQGTQVTVSS | high polyreactivity |
| KVQLVESGGGLVQAGGSLRLSCAASGRIFLPYAMGWYRQAPGKEREFVAAITWGAGTTYYADSVKGRFTISRDNAKNTVYLQMNSLKPEDTAVYYCAAEYRVLSWTYGYWGQGTQVTVSS | high polyreactivity |
| KVQLVESGGGLVQAGGSLRLSCAASGSIFIGYAMGCYRQAPGKERELVAAISYRGGSTYYADSVKGRFTISRDNAKNTVYLQMNSLKPEDTAVYYCATVLPVQQTRLGYSSRYYYWGQGTQVTVSS | high polyreactivity |
| KVQLVESGGGLVQAGGSLRLSCAASGSTFAGNALGWYRKAPGKERELVAAIDSSTGSTYYADSVKGRFTISRDNAKNTVYLQMNSLKPEDTAVYYCNKTSLLVKLDYWGPGTQVTVSS | low polyreactivity |
| KVQLVESGGGLVQAGGSLRLSCAPSGRIFQPNVMGWYRQPPGKVRELAAAIRSVSSTYYADSVKGRFTISRDNAKNSVYLQMNSLKPEDTAVYYCAARLFLRGYTRGNYLGQGTQVTVSS | high polyreactivity |

| Sequence | polyreactivity (PSR sort gate) |
| --- | --- |
| KVQLVESGGSLVQAGGSLRLSSAASGRIITGYAMGWYRQAPGKEWELVAAITGSCVSTYYADSVKGRFTISRDNSKNTVYLQMNSLKPEDTAVYYCAARRYYGYVHWGQGTQVTVSS | high polyreactivity |
| KVQLVESGRALVQAGGSLRLSCAASGSTFGNNAMGWNRPAPGKERELVATIDDTTVSTNYADSVKGRFTISRDNAKNTVYLQMTCLKPEDTAVYYCSADDVDGSPYDYWGQGTQGTVSS | low polyreactivity |
| KVQLVESGVGLDQAGGSHRLSCDASGYIFDDYAMGWYRKAPGKERELVAAISSSGTSTNYADSVKVRFTISRDNAKNTVYLQMNSLKPEDTAVYYCAARSAILKSGYLMDYWGLGTQVTVSS | low polyreactivity |
| KVQLVESVGGLVQAGGSLRLSCAASGSIFRGNAIGWYRQAPGKERQLVAAISNSSGTTYYADSVKGRFTISRDNAKNTVYLQMNSLKPEDTAVYYCATRYYRGYVRGTHHVGGYYYRGQGTQVTVSS | low polyreactivity |
| KVQLVQSGGGLVQAGGILRLSCAASGRIFSSYAMGWYSQAPGKERELVAVISQRGGSTSYADSVKGRFTISRDNAKNTVYLQMNSLKPEDTAVYYCARRPGKGNNYWGQGTQVTVSS | high polyreactivity |
| LVHLQESGGGMVQAGGSLRLSGAAIGYISWADYMGWYRQAPGKERELVAGIGYGSTTYYADSVKGRFTISRDNAKNTAYLQMNSLKPEDTGVYYCAVGLDRDTAYKYWGQGTQVTVSS | low polyreactivity |
| LVHLVESGGGLVQAGGSLRLSCAASGITFTGYAMGWYRQAPGKERELVAAITWSSGSTYYADSVKGRFTISRDNAKNTVYLQMNSLKPEDTAVYYCNAGYWYDGPDYIPEYDYWGQGTQVTVSS | low polyreactivity |
| LVQHQESGGGLVQAGGSLRLSCAASGTIFLRYYMGWYRQAPGKQREFVAAINIGATANYADSLKGRFTISRDNAKNTVYLQMKSLYPQDTAVYYCAVYYPIYRQHDYWGQGSQVTVSS | low polyreactivity |
| LVQHVESGGGIVQAGGSLRLICAASGFPYNYYAMGWYRQAPGTEREFVAAISSGGGSTYYAYSVKGRFTISRDNAKNTVYLQMNSLKPEDTSGYYCAADRYSHYGYWGQATQVTVSS | low polyreactivity |
| LVQHVESGGGLVKAGGSLRLICAASGRTFLRNAMGWYRQAPGKERELVATITRGGSTYYADSVKGRFTISRDNAKNTVYLEKTSLKPEDTAVYYCSKDFSGGFRRPDYGYWGQGPQVTVSS | low polyreactivity |
| LVQLEDSGGGLVQGGGSLRLSCAASGRIFSANAMGCYRQATGKERELVASISTGGGRTYYADSVKGRFTISRDNAKNTVYLQMISLKPEDTAVYYCNAILRPFRVRGTYGTYGYDYWGQGTQVTVSS | high polyreactivity |
| LVQLQECGGGLVQAGGSLRLSCAASGNIFDADIMGWYRQAPCKERELVASVTDGGSTNYADSVKGRFTISRDNAKNTVYLQMNSLKPEDTAVYYCEAIVYPDILTYFDYDYDYFYWGQGTQVTVGS | low polyreactivity |
| LVQLQESGGGLVQAGGSLRLSCAASGTISPGGYMGWYRQAPGKERELVASINVGGSTNYADSVKGRFTISRDNAKNTVYLQMNSLKQEDNAVYYCAVWGRNRLQLSYWGQGTQVTVSS | low polyreactivity |
| LVQLVESGGALVQAGGSLRLSCAASGLIFYDYAMGWYRQAPGNDRELVAAISKGGGSTYYADSVKGRFTISRDYAKNSVYLQMNSLNTEDTAVYYGAASTSHTTDTRYDYWGQGTQVTVSS | low polyreactivity |
| LVQLVESGGGLVQAGGSLRLSCAASGFSFTSYTMGWYRQAPWKERELVAGISTNGGTTYYADSVKGRFTISRDNAKNTVYLQMNSLKPEDTAVYYCNAKRKYGRFPKKYYYWGQGTQVTVSS | high polyreactivity |
| LVQLVESGGGLVQAGGSLRLSCAASGIIFRDNAMGWYRQAPGKERELVAAIDSSGGTTYADSVMGRFTISRDNAKNTVYLQMNSLKPEDTAVFYCATEVYWTVSYYGYDYYGGNYYYWGQGTQVTVSS | low polyreactivity |
| LVQLVESGGGLVQAGGSLRLSCAASGNIFVSYAMGWYRQAPGKERELVAAISKSGGSTYYADSVKGRFTISRDNAKNTVYLQMNSLKPEDTAVYDCAARWYNRVKYQKFNYWGQGTQVTVSS | high polyreactivity |
| LVQLVESGGGLVQAGGSLRLSSAASGLIFGYNAKGWYRQAPGKERELVAASSWSGGRTYYADSVKGRFTISRDNAKNTVYLHMNILKPEDTAVYYCAAVVRHSYFRDDHWGQGTQVTVSS | high polyreactivity |
| LVQLVQSGGGLVQAGGTLRISSAASGSTLDWYAMGWYRQAPGKERELVAAITSGGSTYYADSVKGRFTISRDNAKNTVYLQMNSLKPEDTAVYYCAAEYYTWYYDIYDYWGQGTQVTVSS | high polyreactivity |
| LVQVVESGGGLVQAGGSLRLSCAASGIFSRYARGWYRQAPGKERELVAAISNGGRTYYADSVKGRFTSARDNAKNTVYLQMNSLNPEDTAVYYCNKVRSPWYESWGQGTQVTVSS | high polyreactivity |
| PLQLVESGGGLGQAGGSLRLSCAASGSTFGHNAMGWYRPAPGKERELVAAISISGGRTYYADSVKGRFTISRDNAKNTVYLQMISRKPEDTAVYYCAAEVWYVGDNYDYWGQGTQVTLSS | high polyreactivity |
